The values below come from patent US20200095336A1.

Assay [1] deals with midgut brush-border membrane vesicle protein BBMV of Plutella xylostella. The assay is described as follows: competitive ELISA on coated BBMV; Cry1Ab varied against CCL-CCL_scFv (competitor, detected by its His tag). On the technique in general: In an ELISA, binding on a coated surface is turned into a signal by an enzyme label.
For assay [2] the target is unchanged. The assay can be described thus: BLI (Octet), BBMV coated on APS biosensor, analyte at 4, 2, 1 and 0.5 µM. (Biolayer interferometry detects binding as a change in optical thickness at a sensor tip.)
Assay [3] shares this target. The assay can be described thus: competitive ELISA on coated BBMV; Cry1Ac varied against CCL-CCL_scFv (competitor, detected by its His tag).
Assay [4] shares this target. The assay can be described thus: ELISA on coated BBMV, anti-His-tag HRP.

In general, IC50 refers to the midpoint of a concentration-inhibition curve. Lower therefore signals greater potency in that assay. Usually Kd stands for the free concentration of one partner at which half of the binding sites on the other are occupied at equilibrium, for simple one-to-one binding. The low end stands for a tighter complex, the high end for a looser complex. In assay [1], Bt toxin Cry1Ab (ligand) gave an IC50 of 3.02 µg/mL. In assay [2], this molecule returned a Kd of 127 nM.
In assay [3], Bt toxin Cry1Ac (ligand) showed an IC50 of 1.7 µg/mL and an inhibition rate of 90%.

B1: human-derived molecularly modified insecticidal protein CCL-CCL_scFv (scFv)
scFv: MATDIQMTQSPSSLSASVGDRVTITCRASQSISSYLNWYQQKPGKAPKLLIYAASRLQSGVPSRFSGSGSGTDFTLTISSLQPEDFATYYCQQTSHPPLTFGQGTKVEIKRSSGGGGSGGGGSGGGGSTDIQMTQSPSSLSASVGDRVTITCRASQSISSYLNWYQQKPGKAPKLLIYAASRLQSGVPSRFSGSGSGTDFTLTISSLQPEDFATYYCQQTSHPPLTFGQGTKVEIKR
In assay [2], B1 displayed a Kd of 41.6 nM. In assay [4], this molecule returned an OD450 of more than 3 OD450.
